The assay addresses T1, CPP32, bacterially expressed recombinant active enzyme (human), P42574.
T1 chain: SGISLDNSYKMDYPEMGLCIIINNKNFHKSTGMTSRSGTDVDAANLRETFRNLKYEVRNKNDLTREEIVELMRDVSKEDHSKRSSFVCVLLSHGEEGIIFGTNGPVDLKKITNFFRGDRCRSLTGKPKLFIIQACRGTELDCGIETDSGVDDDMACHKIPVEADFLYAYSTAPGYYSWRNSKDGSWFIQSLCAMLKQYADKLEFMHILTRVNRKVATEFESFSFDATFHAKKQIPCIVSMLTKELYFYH
Kind of assay: inhibition of hydrolysis of 10 µM DEVD-AMC, continuous fluorometric assay, bacterial lysate, 30 min preincubation. Conditions: remark: other sources report otherwise.

No end group written: not given here.

On to YVAD-aldehyde [YVAD aldehyde], for which the Ki is 8.5 µM.

As a reminder, the Ki is the dissociation constant of the complex between target and ligand, obtained from inhibition or displacement.
